Laboratory results taken from article PMC7989959.

Molecular target: alpha-synuclein (UniProt P37840 1-140)
Experiment: electrochemical current sensor

GCCTGTGTTGGGGCGGGTGCG (ssDNA, 5'-SH (thiol)) [Abeta aptamer (Tsukakoshi et al)]
binding result: no binding
